According to patent US20250221936A1, “ENGINEERED HEMICHANNELS, ENGINEERED VESICLES, AND USES THEREOF” (VIRGINIA TECH INTELLECTUAL PROPERTIES, INC., priority 2018, published 2025):

Columns and labels:
[1] = molecular target: T1, PKC-ε phosphorylation of Cx43-CT substrate at Ser368 (Rattus norvegicus, UniProt P08050); assay: PKC-ε Cx43 CT S368 phosphorylation assay; assay type: biochemical; settings: peptides at 20 μM
T1 construct: substrate (Cx43-CT: amino acids 255 to 382); GST (N); made in house; host or cells: E. coli BL21 (Cx43 CT); PKC-ε purchased (Life, 37717L)
T1 sequence (P08050 255-382): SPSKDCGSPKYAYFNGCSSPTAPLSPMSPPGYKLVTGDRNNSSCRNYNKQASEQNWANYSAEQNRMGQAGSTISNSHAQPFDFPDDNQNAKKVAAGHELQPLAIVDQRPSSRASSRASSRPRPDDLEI
Method: PKC assay conditions were used to evaluate the PKC-ε phosphorylation of Cx43-CT substrate at Ser368 as we have described previously, with modifications 11. 400 ng/ml […] (Life, 37717L, Carlsbad, CA) was pre-diluted in enzyme dilution buffer (10 mM HEPES pH7.4, 0.01% CHAPS and 5 mM DTT) and assayed in 20 mM HEPES pH7.4, 10 mM/L MgCl2, 0.1 mM EGTA, 1× lipid mix (200 μg/ml phosphatidylserine (Avanti Polar Lipids 840032C),^20 μg/ml Diacylglycerol (Avanti Polar Lipids), 1 mM HEPES pH7.4, 0.03% CHAPS), 500 µM ATP (Sigma, A6419) and 14 μg/ml Cx43-CT substrate. Kinase assay buffer was supplemented with peptides to produce final concentrations of the reaction constituents, as indicated in figure legends. The mixture was incubated at 37° C. for 12 minutes and quenched by addition of LDS sample loading buffer (Bio Rad, 1610791). “XT sample buffer” is what was shown on the product label, whereas the component is similar as regular LDS buffer, containing about 5-10% lithium dodecyl sulphate. The reaction was Western blotted for pS368 Cx43 using the Phospho-Connexin43 (Ser368) antibody from Cell Signaling. Proteins were eluted off by stripping buffer (Millipore 2504) and re-probed for total Cx43 using the Sigma anti-rabbit antibody. Percent phosphorylation (% P) was quantified using Equation 1 and normalized with control group (PKC+, no peptide added).

[2] = molecular target: T2, Cx43 CT (Rattus norvegicus, UniProt P08050); assay: Protein thermal shift assay, Cx43 CT; assay type: binding; settings: 500 μg/ml protein, 25-100 μM peptide
T2 construct: CT: amino acids 255 to 382) alone; GST (N); made in house; host or cells: E. coli BL21
T2 sequence (P08050 255-382): as above
Method: Thermal stability of recombinant GST-PDZ2 or Cx43 CT in the presence or absence of peptides was determined in a 96-well format. Each assay well was composed of 500 μg/ml protein, 25-100 μM of each peptide in PBS buffer, pH7.4. All assays were performed independently six times. Samples were generally prepared in 96-well plates at final volumes of 20 μL. The fluorescent dye SYPRO Orange (5000× concentrate in DMSO, ThermoFisher, S6650) was added to a final concentration of 8X. Reactions were run on QuantStudio 6 Flex Real-Time PCR system (Applied Biosystems, part of Life Technologies Corporation, CA) according to the manufacturer's recommendations using a melt protocol in 0.05-degree/see increments from 25° C. to 95° C. The Reporter Dye was “ROX” and quencher Dye and passive reference were selected as “None” for the melt curve according to manufacturer's instructions. The data were analyzed using Protein Thermal Shift™ Software v1.3 package (Applied Biosystems, CA).

[3] = molecular target: T3, Cx43 CT-KK/QQ (Rattus norvegicus, UniProt P08050, K345Q/K346Q); assay: Surface plasmon resonance, Cx43 CT-KK/QQ analyte; assay type: binding; settings: biotin-peptide immobilized on streptavidin chip
T3 construct: pGEX-6-P2 Cx43 CT amino acids 255-382; GST (N, cleaved yes); made in house; host or cells: E. coli BL21
T3 sequence (P08050 255-382 K345Q/K346Q): as the sequence (P08050 255-382) above, with K91Q, K92Q counted along it
Excerpt: Peptides were synthesized and quality checked for fidelity and purity using High Performance Liquid Chromatography and mass spectrometry (LifeTein, Hillsborough, NJ). Biotinylated peptides were designed for surface plasmon resonance experiments. Glutathione-S-Transferase (GST) fusion protein constructs composed of the Cx43-CT (pGEX-6-P2 Cx43 CT amino acids 255-382), ZO-1 PDZ1, PDZ2 and PDZ3 were isolated and purified from isopropyl-b-D-thiogalactoside (IPTG)-induced BL21 bacteria using standard procedures, described in references 13, 14, 20. The pGEX6p2-Cx43 CT plasmid was obtained from Prof. Paul L. Sorgen (University of Nebraska Medical Center, USA). Cx43 CT mutant (Cx43 CT-KK/QQ; amino acids Lys345 Lys346 to Gln 345 Gln 346) was developed by site-directed mutagenesis of the pGEX6p2-Cx43 CT plasmid (Agilent technologies, QuikChange II Site-Directed Mutagenesis Kit). The mutation was verified by sequencing. For surface plasmon resonance experiments, the GST was removed using PreScission protease, yielding Cx43 CT protein (wild-type or mutant).
Efficacy of the interaction of each alpha CT1 variant with Cx43 CT or Cx43 CT-KK/QQ was tested using surface plasmon resonance (SPR) as described previously 20. In brief, SPR experiments were performed using a Biacore T200 (GE Healthcare). Equal amounts (response units/RU) of biotin-alpha CT1 variants were immobilized on each flow cell of a streptavidin-coated sensor chip (Biacore Inc) using immobilization buffer (in mM: 10 HEPES, 1 EDTA, 100 NaCl, 0.005% Tween-20) at pH 7.4. Measurements with wild-type (wt) Cx43 CT and mutant Cx43 CT-KK/QQ analytes were done in running buffer (in mM: 10 HEPES, 100 NaCl, pH 7.4) at a flow rate of 30 μl/min. Binding of analytes were verified at different concentrations, in random order (injection volume 120 μl). Interacting proteins were then unbound by injection of […] regeneration buffer (50 mM NaOH and 1 M NaCl) at a flow rate of 10 μl/min. Background levels were obtained from a reference cell containing a biotin-control peptide in which the reversed sequence of the last 9 amino acids of Cx43 was fused to biotin-antennapedia. The RU values obtained with biotin-control peptide were subtracted from the RU values obtained with the different biotin-alphaCT1 variants (wild-type or mutant) to generate the different response curves.

| Sequence | Cx43 S368 phosphorylation [1] | Cx43 CT melt temperature (Tm) [2] | SPR binding to Cx43 CT-KK/QQ [3] | ability to induce S368 phosphorylation ([1]; greater than PKC ε+plus control, M1 AALAI or M4) |
| --- | --- | --- | --- | --- |
| RQPKIWFPNRRKPWKKRPRPDDLAI [M3 DDLAI] | neither M1 AALAI (SEQ ID NO: 134), M2 AALEI (SEQ ID NO: 135) nor M3 DDLAI (SEQ ID NO: 136) increased Cx43 S368 phosphorylation | no propensity to alter Cx43 CT thermal stability | unable mediate interactions |  |
| RQPKIWFPNRRKPWKKRPRPDDLE [alpha CT1-I] | significant increase in PKC ε-mediated phosphorylation of Cx43 CT | highly significant decreases in melt temperature |  |  |
| RQPKIWFPNRRKPWKK RPRPAALAI (RQPKIWFPNRRKPWKKRPRPAALAI) [M1 AALAI] | neither M1 AALAI (SEQ ID NO: 134), M2 AALEI (SEQ ID NO: 135) nor M3 DDLAI (SEQ ID NO: 136) increased Cx43 S368 phosphorylation | no propensity to alter Cx43 CT thermal stability | unable mediate interactions |  |
| RQPKIWFPNRRKPWKKRPRPDDLEI [alpha CT1] |  | highly significant decreases in melt temperature | unable mediate interactions | about 3 fold |
